The target in this test is T1, SΔTM deglycosylated by PNGase F (trimeric spike protein without transmembrane domain) (SARS-CoV-2 Wuhan-Hu-1, UniProt P0DTC2, stabilised, deglycosylated by PNGase F).
T1 construct: also called nonglycosylated SΔTM; deglycosylated spike protein
The experiment in a line: western blotting. As to conditions: both partners purified.

B1: mouse anti-SARS-CoV-2 spike monoclonal antibody clone R31 (antibody, V domains shown)
VH: QVQLQQSGAELVRPGTSVKISCKASYTFTNYWLAWVKQRPGHGLEWIGDIYPGGAYTNFNEKFKGKATLTADTSSSTAYMQLSSLTSEDSAVYFCARDGHYGYAMDYWGQGTSVTVSS
VL: DIVMTQAAFSNPVTLGTSASISCRSSKSLLHSNGITYLYWYLQKPGQSPQLLIYQMSDLASGVPDRFSSSGSGTDFTLRISRVEAEDVGVYYCAQNLELPRTFGGGIKLEIK
Turning to B1, the binding result is recorded as “binds”.

Values taken from article PMC7846482 (The Journal of Biological Chemistry, 2021).
